Reference: IntAct's records for PubMed 23622247

B1: Rho-related GTP-binding protein RhoE (Mus musculus), P61588 (parent)
chain: MKERRASQKLSSKSIMDPNQNVKCKIVVVGDSQCGKTALLHVFAKDCFPENYVPTVFENYTASFEIDTQRIELSLWDTSGSPYYDNVRPLSYPDSDAVLICFDISRPETLDSVLKKWKGEIQEFCPNTKMLLVGCKSDLRTDVSTLVELSNHRQTPVSYDQGANMAKQIGAATYIECSALQSENSVRDIFHVATLACVNKTNKNVKRNKSQRATKRISHMPSRPELSAVATDLRKDKAKSCTVM

Variants of: B1
Details: with rhg05_human ARHGAP5, Q13017
Sequence of rhg05_human ARHGAP5, Q13017 (Q13017 whole entry): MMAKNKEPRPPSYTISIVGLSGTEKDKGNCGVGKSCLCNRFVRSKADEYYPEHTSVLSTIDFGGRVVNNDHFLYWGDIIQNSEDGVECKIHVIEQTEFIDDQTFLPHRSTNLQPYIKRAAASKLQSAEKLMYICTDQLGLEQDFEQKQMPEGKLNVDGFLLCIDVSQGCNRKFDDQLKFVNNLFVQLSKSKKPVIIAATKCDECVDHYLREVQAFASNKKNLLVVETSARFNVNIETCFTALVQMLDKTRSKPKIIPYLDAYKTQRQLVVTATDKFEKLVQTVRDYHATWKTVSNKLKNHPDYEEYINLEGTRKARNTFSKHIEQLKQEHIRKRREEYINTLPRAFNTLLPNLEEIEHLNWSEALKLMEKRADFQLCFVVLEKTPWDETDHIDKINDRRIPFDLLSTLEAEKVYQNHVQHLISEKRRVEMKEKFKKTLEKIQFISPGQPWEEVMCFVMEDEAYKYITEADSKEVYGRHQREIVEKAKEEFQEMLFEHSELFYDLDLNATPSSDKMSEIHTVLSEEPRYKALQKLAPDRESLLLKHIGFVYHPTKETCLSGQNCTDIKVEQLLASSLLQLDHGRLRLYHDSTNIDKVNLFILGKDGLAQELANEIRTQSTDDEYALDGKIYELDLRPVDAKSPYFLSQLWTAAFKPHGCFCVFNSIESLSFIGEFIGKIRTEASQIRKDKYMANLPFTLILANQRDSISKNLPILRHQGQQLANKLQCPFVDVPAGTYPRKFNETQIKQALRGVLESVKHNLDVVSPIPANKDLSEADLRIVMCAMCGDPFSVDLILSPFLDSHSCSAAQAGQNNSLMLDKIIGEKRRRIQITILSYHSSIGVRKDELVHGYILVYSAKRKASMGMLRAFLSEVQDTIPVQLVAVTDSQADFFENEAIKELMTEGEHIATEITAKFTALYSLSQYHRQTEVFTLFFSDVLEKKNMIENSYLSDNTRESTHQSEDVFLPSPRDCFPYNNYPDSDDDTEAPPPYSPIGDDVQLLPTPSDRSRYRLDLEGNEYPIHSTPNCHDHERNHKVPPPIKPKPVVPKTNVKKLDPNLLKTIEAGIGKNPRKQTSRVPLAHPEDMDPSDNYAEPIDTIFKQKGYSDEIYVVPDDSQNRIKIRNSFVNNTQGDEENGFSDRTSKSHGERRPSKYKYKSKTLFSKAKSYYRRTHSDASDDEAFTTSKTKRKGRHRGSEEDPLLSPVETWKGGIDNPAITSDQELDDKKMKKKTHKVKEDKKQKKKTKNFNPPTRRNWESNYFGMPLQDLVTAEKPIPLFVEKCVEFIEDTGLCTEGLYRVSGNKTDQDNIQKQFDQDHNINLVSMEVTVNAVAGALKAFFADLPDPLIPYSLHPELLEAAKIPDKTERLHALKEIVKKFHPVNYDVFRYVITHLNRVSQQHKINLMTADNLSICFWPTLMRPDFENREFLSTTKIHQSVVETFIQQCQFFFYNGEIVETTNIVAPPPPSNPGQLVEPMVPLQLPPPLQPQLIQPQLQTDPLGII

Q: With MKERRASQKLSSKSIMDPNQNVKCKIVVVGDSQCGKTALLHVFAKDCFPENYVPVVFENYTASFEIDTQRIELSLWDTSGSPYYDNVRPLSYPDSDAVLICFDISRPETLDSVLKKWKGEIQEFCPNTKMLLVGCKSDLRTDVSTLVELSNHRQTPVSYDQGANMAKQIGAATYIECSALQSENSVRDIFHVATLACVNKTNKNVKRNKSQRATKRISHMPSRPELSAVATDLRKDKAKSCTVM [T55V] as the variant, how does the “effect of a mutation on the interaction” value read?
A: disrupting interaction strength

Variants of: B1
Details: with 1433b_human YWHAB

Q: How did the “effect of a mutation on the interaction” value turn out when MKERRASQKLSSKSIMDPNQNVKCKIVVVGDSQCGKTALLHVFAKDCFPENYVPTVFENYTASFEIDTQRIELSLWDTSGSPYYDNVRPLSYPDSDAVLICFDISRPETLDSVLKKWKGEIQEFCPNTKMLLVGCKSDLRTDVSTLVELSNHRQTPVSYDQGANMAKQIGAATYIECSALQSENSVRDIFHVATLACVNKTNKNVKRNKAQRAAKRIAHMPSRPELSAVATDLRKDKAKSCTVM [S210A;T214A;S218A] was run?
A: disrupting interaction strength

Variants of: B1
Details: with 1433b_human YWHAB
Remark: another data set of the same source

Q: For MKERRAAQKLASKSIMDPNQNVKCKIVVVGDSQCGKTALLHVFAKDCFPENYVPTVFENYTASFEIDTQRIELSLWDTSGSPYYDNVRPLSYPDSDAVLICFDISRPETLDSVLKKWKGEIQEFCPNTKMLLVGCKSDLRTDVSTLVELSNHRQTPVSYDQGANMAKQIGAATYIECSALQSENSVRDIFHVATLACVNKTNKNVKRNKAQRAAKRIAHMPARPELSAVATDLRKDKAKACTVM [S7A;S11A;S210A;T214A;S218A;S222A;S240A], which “effect of a mutation on the interaction” value is on record?
A: disrupting interaction strength
